Reference: patent US20230235078A1 (University of Texas, published 2023)

T1: human DDR2 ECD (human, UniProt Q16832 22-399)
T1 construct: extracellular domain; also called DDR2 ECD protein
T1 sequence (looked up): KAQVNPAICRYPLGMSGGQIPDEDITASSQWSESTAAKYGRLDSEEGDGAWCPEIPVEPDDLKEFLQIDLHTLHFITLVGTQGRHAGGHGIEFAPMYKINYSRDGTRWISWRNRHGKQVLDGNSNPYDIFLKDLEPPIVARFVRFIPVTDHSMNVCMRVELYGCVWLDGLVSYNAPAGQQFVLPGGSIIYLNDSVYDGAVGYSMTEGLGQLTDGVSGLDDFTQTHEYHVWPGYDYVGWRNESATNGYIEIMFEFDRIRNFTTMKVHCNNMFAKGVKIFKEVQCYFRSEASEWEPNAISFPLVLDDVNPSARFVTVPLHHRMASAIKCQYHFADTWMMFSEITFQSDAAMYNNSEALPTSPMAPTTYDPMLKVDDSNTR


Assays:
[1] = biological target: T2, Human DDR1 extracellular domain (ECD) protein (human, UniProt Q08345 21-417); assay: ELISA on DDR1, antibody at 10 and 1 µg/ml
T2 construct: it is treated here as the same molecule; also called recombinant human DDR1 ECD; huDDR1 ECD; not shown: 6xHIS-tag

human DDR2 ECD = biological target: T1, human DDR2 ECD; assay: ELISA, DDR2 ECD coated, antibody at 1 ug/ml, HRP anti-rabbit detection
Description: FIG. 19. Determination of cross-reactivity of a panel of monoclonal antibodies to human DDR2 using ELISA method. DDR1 or DDR2 ECD protein was coated on a high binding plate and each of monoclonal antibodies at 1 ug/ml concentration was added for binding detection with HRP conjugated anti-rabbit antibody (Jackson ImmuneResearch, PA).
To determination cross-reactivity of a panel of anti-human DDR1 monoclonal antibodies to human DDR2 ECD, an ELISA method was used. DDR1 ECD or DDR2 ECD protein was coated on a high binding plate and each of monoclonal antibodies was applied at 1 ug/ml concentration and binding was detected using HRP conjugated anti-rabbit antibody (Jackson ImmuneResearch, PA). Monoclonal antibodies DDR1-3; DDR1-9; DDR1-10; DDR1-14 and DDR1-33 were specific for DDR1 epitopes, while clones DDR1-13; DDR1-15; DDR1-21; DDR1-22 and DDR1-34 appear to recognize epitopes present on both DDR1 and DDR2 ECD.

[2] = biological target: T2, Human DDR1 extracellular domain (ECD) …; assay: BLI (Octet); target not given, recombinant DDR1 assumed

T2 sequence (Q08345 21-417): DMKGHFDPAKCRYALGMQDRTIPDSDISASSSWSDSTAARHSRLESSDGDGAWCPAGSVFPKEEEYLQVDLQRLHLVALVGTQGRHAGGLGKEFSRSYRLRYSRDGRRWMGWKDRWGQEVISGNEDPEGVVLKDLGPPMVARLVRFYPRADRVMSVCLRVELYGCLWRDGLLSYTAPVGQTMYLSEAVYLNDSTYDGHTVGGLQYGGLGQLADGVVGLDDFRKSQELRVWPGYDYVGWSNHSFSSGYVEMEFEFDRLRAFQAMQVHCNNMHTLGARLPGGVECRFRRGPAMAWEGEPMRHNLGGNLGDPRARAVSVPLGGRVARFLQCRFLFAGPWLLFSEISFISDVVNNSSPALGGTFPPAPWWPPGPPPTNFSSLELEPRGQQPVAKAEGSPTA

Row | Binder | binding result [1] | also measured
1 | DDR1-22 (antibody, V domains shown, Rabbit variable domains; Detected with anti-rabbit HRP antibody in the DDR2 ELISA; also called DDR1-22K/DDR1-22H) VH: QSVKESGGRLVTPGGSLTLTCTVSGFSLSDYAMIWVRQAPGKGLEYIGIINNGDIYYATWAKGRFTISETSSTTMGLNIISPTTEDTATYFCARPGYRTGIWLWGPGTLVTISS VL: ELVLTQTPSPVSAAVGGTVTINCQSSKNIYNNNALSWFQQKPGQPPKLLIYGASTLASGVPSRFKGSGSGTQFTLTISDVQCDDAATYYCAADYSDISDNNFGGGTEVVVK | binds | binding result (human DDR2 ECD): binds
2 | DDR1-9Hu-Ab2 (antibody, V domains shown, Humanized form of DDR1-9) VH: QVQLVESGGRVVQPGRSLRLSCTASGFSLNRYYMLWVRQAPGKGLEWIGTISYGDTTYYASWAKGRFTISRDNSKNTLYLQMNSLRAEDTAVYYCARADTGDNGYLGLQLWGQGTLVTVSS VL: DIQMTQSPSSVSASVGDRVTITCRASQSIGSVLAWYQQKPGKAPKLLIYGVFSLQSGVPSRFSGSGSGTDFTLTISSLQPEDFATYYCQYIPYGSSPFGGGTKVEIK |  | Kd [2]: 0.77 nM; koff [2]: 0.000113 s⁻¹; kon [2]: 146000 M⁻¹ s⁻¹
3 | DDR1-1 (antibody, V domains shown, also called DDR1-1K/DDR1-1H) VH: QSVEESGGRLVTPGTPLTLTCTVSGFSLSRYAMTWVRQAPGKGLEWIGIIGSSGLTYFATWAKGRFTISKTSTTVDLKITSPTTEDTATYFCARGMWYDDSDDYEDYFNLWGPGTLVTISS VL: ELVLTQTPASVSAAVGGTVTINCQASQNIYSNLAWYQQKPGQPPKLLIYGASNLESGVPSRFKGSGSGTQFTLTISDLECDDAATYYCQSGYYSSSTDIAFGGGTEVVVK | binds | 
4 | DDR1-11 (antibody, V domains shown, also called DDR1-11K/DDR1-11H) VH: QSLEESGGDLVKPGASLTLTCTASGFSFSSGYYMCWVRQAPGKGLEWIACIYTGRTDFTDYASWAKGRFTISKTSSTTVTLQLTTLTAADTATYFCARGDYSGGVGGNYWLDLWGQGTLVTISS VL: ELVMTQTASPVSAAVGGTVTINCQASQSIGSTYLSWYQQKPGQPPKLLIYKASILASGVPSRFSGSGSGTEYTLTISGVQCDDAATYYCLYGGFGSSTGDAFGGGTVLVVK | binds | 
5 | DDR1-6 (antibody, V domains shown, also called DDR1-6K/DDR1-6H) VH: SQSLKESGGDLVKPGASRTLTCIAPGFSFSSSYYMCWVRQAPGKGLEWIACIYASSGSTYYASWAKGRFTISKTSSTTVTLQMTTLTAADTATYFCAAILGADYRLTRLDLWGQGTLVTVSS VL: ELVMTQTPSPVSAAVGGTVTISCQSSQSVYSNYLSWYQQKPGQPPKLLIYETSTLASGVPSRFKGSGSGTQFTLTISDVQCDDAATYYCQGGYSEIIENTFGGGTEVEIK | binds | 
6 | DDR1-34 (antibody, V domains shown, Rabbit variable domains; Detected with anti-rabbit HRP antibody in the DDR2 ELISA; also called DDR1-34K/DDR1-34H) VH: QSVKESGGGLVKPEGSLTLTCKASGFDLSSYYYMCWVRQAPGKGLEWIACIYTSSGATWYANWAKGRFTISKTSSTTVTLQMTALTAADTATYFCARGGWCDFNLWGPGTLVTISS VL: ELDLTQTPASVSAAVGGTVTISCQSSENLYKDNYLAWYQQKPGQPPKLLIYGASNLASGVPSRFKGSGSGTQFTLTISDLECDDAATYYCAGGYDSVVDFGGGTEVVVK | binds | binding result (human DDR2 ECD): binds
7 | DDR1-29 (antibody, V domains shown, also called DDR1-29K/DDR1-29H) VH: QSVKSGGGLVKPGASLTLTCKASTFSFNSRYWTCWVRQAPGKGLEWIGCINNGDITTYYTNWATGRFTISKSSSTTVTLQMTSLTAADTATYFCAKGGNLAGDCYGLWGPGTLVTISG VL: ELVMTQTPASVEAAVGGTVTIKCQASQSISNHLGWYQQKPGQPPKLLIYRASTLESGVSSRFKGSGSGSEFTLTISDLECADAATYYCQSYYIINRSNYANSFGGGTEVEIK | binds | 
8 | DDR1-20 (antibody, V domains shown, also called DDR1-20K/DDR1-20H) VH: QSVKESGGGLFKPMDTLTLTCTVSGFSLSDYAMSWVRQAPGKGLEWIGIINSRDDTGYASWAKGRFTISKTSSTTVDLRITSPTTEDTATYFCAREDSSIPFIVGNYYGMDLWGPGTLVTVSS VL: ELDLTQTPASVSAAVGGTVTINCQSSQIIDHDHLSWYQQKPGQRPKLLIYRASTLTSGVPSRFKGSGSGTDFTLTISDLECADVATYYCQNNNGMTVSDFNAFGGGTEVEIK | binds | 
9 | DDR1-28 (antibody, V domains shown, also called DDR1-28K/DDR1-28H) VH: QSVEESGGRLVTPGTPLTLTCTVSGFSLSSHDMIWVRQAAGKGLEWIGLIISSGNTWYASWAKGRFTISKTSTTVDLKMTSLTTEDTATYFCARDVYSGASPWGPGTLVTISS VL: ELDLTQTPASVEAAVGGTVTIKCQASQSIDNNDLAWYQQKPGQPPNLLISRTSTLASGVSSRFKGSGSGTEFTLTISDLECADAATYYCQSYCVNTYGYTFGGGTEVVVK | binds | 

Now from value to binder, other results behind:

Row | binding result [1] | Binder | also measured
10 | binds | DDR1-17 (antibody, V domains shown, also called DDR1-17K/DDR1-17H) VH: SSVEESGGRLVAPGTPLTLTCTVSGFSLNRYAMSWVRQAPGKGLEWIGIIGSSGSTYYASWAKGRFTISKTSTTVDLKITSPTTEDTATYFCARDLDDSYGYTYATGMDIRLDLWGQGTLVTVSS VL: ELVLTQTPASVSEPVGGTVTIKCQASQSIGSYLSWYQQKAGQPPKRLIYEASTLASGVPSRFSGSGSGTDFTLTISDLECADVATYYCQNNNGMTVSDFNAFGGGTEVEIK | 
11 | binds | DDR1-5 (antibody, V domains shown, also called DDR1-5K/DDR1-5H) VH: QSVKESGGRLVTPGTPLTLTCTVSGFTLSNNAISWVRQAPGKGLEWIGIIYASGRTYYATWAKGRFTISKTSTTVDLKMTSPTTEDTATYFCARGDTETDYGIPYFDLWGPGTLVTISS VL: ELVLTQTPASVSEPVGGTVTIKCQASQTISSWLSWYQQKPGQPPKLLIYYAFNLASGVPSRFKGSGSGTEYTLTISDLECADAATYYCQCTYGSGSSSSYGCAFGGGTELEIK | 
12 | binds | DDR1-15 (antibody, V domains shown, Rabbit variable domains; Detected with anti-rabbit HRP antibody in the DDR2 ELISA; also called DDR1-15K/DDR1-15H) VH: SQSLEESGGDLVKPGASLTLTCTASTFSFNSRYWTCWVRQAPGKGLEWIGCINNGDISTYYASWATGRFTISKSSSTTVTLHMTSLTAADTATYFCAKGGNLAGDCYGLWGPGTLVTISS VL: ELVMTQTPASVEVAVGGTVTIKCQASQTIYSSLAWYQQKPGQPPKLLIYKASTLASGVPSRFKGSGSGTQFTLTISGVQCDDAATYYCQQGSSISNVDKNAFGGGTEVEIK | binding result (human DDR2 ECD): binds
13 | binds | DDR1-23 (antibody, V domains shown, also called DDR1-23K/DDR1-23H) VH: SQSVKESGGDLVKPGASLTLTCKASGFDLRSYYYMCWVRQAPGKGLEWIACIHGGEGNTYYASWAKGRFTISKTSSTAVTLQMTSLTAADTATYFCARGGWTNYFWGPGTLVTVSS VL: ELVLTQTPSSVSAAVGGTVTISCQSSQSVYSNNYLAWYQQKPGQPPKLLIYAASTLASGVPSRFKGSGSGTQFTLTISGVQCDDAAVYYCLGGYNDDANFGGGTEVEIK | 
14 | binds | DDR1-26 (antibody, V domains shown, also called DDR1-26K/DDR1-26H) VH: EQSLKESGGDLVKPGASLTLTCTASGFDLSSNYYMCWVRQAPGKGPEWIACIYSSNTRTWYARWAKGRFTISKTSSTAVTLQMTSLTAADTATYFCARGGWTNYLWGPGTLVTISS VL: ELDLTQTPSSVSAAVGGTVTISCQSSESVYSNNHLAWYQQKPGQPPKLLIYAASTLASGVPSRFSGSGSGTQFTLTISGVQCDDAAVYYCLGGYNDDANFGGGTEVVVK | 
15 | binds | DDR1-21 (antibody, V domains shown, Rabbit variable domains; Detected with anti-rabbit HRP antibody in the DDR2 ELISA; also called DDR1-21K/DDR1-21H) VH: QSLEESGGRLVTPGTPLTLTCTVSGFSLSSYGVHWVRQAPGKGLDWIGKIYPSGSIYYSSWAKGRFTISKTSTTVDLKMTSLTTEDTATYFCVRYLTGSSDLHLWGPGTLVTISS VL: ELVLTQTPSSTSAAVGGTVTISCQSSQSVVDKNWLAWYQQKPGQPPKLLIYEASKLASGVPPRFSGSGSGTQFTLTISGVQCDDAATYYCAGDFESGVSGFGGGTEVEIK | binding result (human DDR2 ECD): binds
16 | binds | DDR1-13 (antibody, V domains shown, Rabbit variable domains; Detected with anti-rabbit HRP antibody in the DDR2 ELISA; also called DDR1-13K/DDR1-13H) VH: EQSVEESGGRLVTPGGSLTLTCTASGFSLNNYAIIWVRQAPGKGLEYIGIFNNGDIYYANWAKGRFTISKTSTTVGLKIVSPTTEDTATYFCARTGYRTGGWLWGPGTLVTISS VL: ELVMTQTPSPVSAAVGGTVSISCQSSKSVYNNNALSWFQQKPGQPPKVLIYGVSTLDSGVSSRFSGSGYGTEFTLTISDVQCDDAATYYCAGDYSDISDNNFGGGTELEIK | binding result (human DDR2 ECD): binds
17 | binds | DDR1-12 (antibody, V domains shown, also called DDR1-12K/DDR1-12H) VH: QSLEESGGRLVTPGTPLTLTCTVSGIDLSNTWMNWVRQAPGKGLEWIGVITDSGTTYYANWAKGRFTISRTSTTVDLKMPSLTTEDTATYFCGRDPGDITSGTNDLWGPGTLVTISS VL: ELVLTQTPASVSEPVGGTVTIKCQASQTIYSNLAWYQQKPGQRPKLLIYQASKLASGVPSRFKGSGSGTEYTLTISDLECADAATYYCQSYYGADDYTFGGGTEVVVK | 
